Assays:
Experiment in all cases: holdup assay
Parameters in all cases: key: below the threshold = too weak to quantify, mostly under pKd 3.1 to 4
DFNB31_2, Q9P202 = molecular target: T1, DFNB31_2, Q9P202
T1 sequence (Q9P202 274-371, limits assumed, looked up): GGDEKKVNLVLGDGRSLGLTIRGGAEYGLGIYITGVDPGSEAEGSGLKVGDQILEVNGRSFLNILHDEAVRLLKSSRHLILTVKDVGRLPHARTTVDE

DFNB31_3, Q9P202 = molecular target: T2, DFNB31_3, Q9P202
T2 sequence (Q9P202 811-907, limits assumed, looked up): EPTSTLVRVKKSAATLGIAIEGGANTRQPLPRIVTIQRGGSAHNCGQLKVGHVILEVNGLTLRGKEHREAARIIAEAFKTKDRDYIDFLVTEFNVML

DLG3_2, Q92796 = molecular target: T3, DLG3_2, Q92796
T3 sequence (Q92796 221-321, limits assumed, looked up): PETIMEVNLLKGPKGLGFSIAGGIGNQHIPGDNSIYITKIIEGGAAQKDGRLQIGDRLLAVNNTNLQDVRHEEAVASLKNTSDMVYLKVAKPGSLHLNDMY

DLG3_3, Q92796 = molecular target: T4, DLG3_3, Q92796
T4 sequence (Q92796 374-475, limits assumed, looked up): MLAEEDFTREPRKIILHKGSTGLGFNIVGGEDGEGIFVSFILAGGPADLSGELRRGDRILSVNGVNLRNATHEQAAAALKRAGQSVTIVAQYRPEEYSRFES

DLG4_3, P78352 = molecular target: DLG4_3, P78352
FRMPD2_3, Q68DX3 = molecular target: FRMPD2_3, Q68DX3
GRIP2_4, Q9C0E4 = molecular target: GRIP2_4, Q9C0E4
HTRA2, O43464 = molecular target: HTRA2, O43464
HTRA4, P83105 = molecular target: T5, HTRA4, P83105
T5 sequence (P83105 378-476, limits assumed, looked up): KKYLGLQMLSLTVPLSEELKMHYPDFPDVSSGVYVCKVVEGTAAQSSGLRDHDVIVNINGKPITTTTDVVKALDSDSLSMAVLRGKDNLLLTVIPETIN

IL16_3, Q14005 = molecular target: IL16_3, Q14005
Inadl_1, Q8NI35 = molecular target: Inadl_1, Q8NI35
Inadl_4, Q8NI35 = molecular target: Inadl_4, Q8NI35
Inadl_5, Q8NI35 = molecular target: Inadl_5, Q8NI35
Inadl_6, Q8NI35 = molecular target: Inadl_6, Q8NI35
LAP2, Q96RT1 = molecular target: LAP2, Q96RT1
LIN7C, Q9NUP9 = molecular target: T6, LIN7C, Q9NUP9
T6 sequence (Q9NUP9 88-185, limits assumed, looked up): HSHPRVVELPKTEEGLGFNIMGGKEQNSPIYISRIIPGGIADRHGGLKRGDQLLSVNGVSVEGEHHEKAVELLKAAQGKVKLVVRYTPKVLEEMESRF

MAGI2_2, Q86UL8 = molecular target: MAGI2_2, Q86UL8
MAGI2_5, Q86UL8 = molecular target: MAGI2_5, Q86UL8
MAST1, Q9Y2H9 = molecular target: MAST1, Q9Y2H9
MPP7, Q5T2T1 = molecular target: T7, MPP7, Q5T2T1
T7 sequence (Q5T2T1 134-230, limits assumed, looked up): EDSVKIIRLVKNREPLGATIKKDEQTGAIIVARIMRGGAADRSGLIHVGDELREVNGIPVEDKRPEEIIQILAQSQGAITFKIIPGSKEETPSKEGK

NOS1, P29475 = molecular target: NOS1, P29475
PDZD2_2, O15018 = molecular target: T8, PDZD2_2, O15018
T8 sequence (O15018 329-429, limits assumed, looked up): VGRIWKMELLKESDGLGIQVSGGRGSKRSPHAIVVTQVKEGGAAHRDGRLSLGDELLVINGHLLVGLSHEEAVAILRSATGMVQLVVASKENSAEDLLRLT

PICK1, Q9NRD5 = molecular target: PICK1, Q9NRD5
PTPN13_1, Q12923 = molecular target: T9, PTPN13_1, Q12923
T9 sequence (Q12923 1088-1188, limits assumed, looked up): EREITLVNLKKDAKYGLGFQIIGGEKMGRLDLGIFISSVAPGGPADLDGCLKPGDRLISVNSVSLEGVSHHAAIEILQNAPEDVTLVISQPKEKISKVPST

RADIL, Q96JH8 = molecular target: T10, RADIL, Q96JH8
T10 sequence (Q96JH8 971-1071, limits assumed, looked up): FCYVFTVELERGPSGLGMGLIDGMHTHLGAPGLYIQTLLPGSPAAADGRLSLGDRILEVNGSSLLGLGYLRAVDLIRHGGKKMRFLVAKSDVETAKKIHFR

SCRIB_3, Q14160 = molecular target: SCRIB_3, Q14160
TX1BP3, O14907 = molecular target: T11, TX1BP3, O14907
T11 sequence (O14907 10-122, limits assumed, looked up): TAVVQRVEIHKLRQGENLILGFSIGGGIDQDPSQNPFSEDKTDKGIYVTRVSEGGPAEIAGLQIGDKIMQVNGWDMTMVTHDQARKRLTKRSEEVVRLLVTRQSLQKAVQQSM

[1] = plain residues with an end cap or a label only (N-terminal biotin on a linker: ado-ado)
[2] = modified: phospho on T at position -1 from the C-terminal residue

MAGI2_5, Q86UL8, sequence (Q86UL8 915-1017): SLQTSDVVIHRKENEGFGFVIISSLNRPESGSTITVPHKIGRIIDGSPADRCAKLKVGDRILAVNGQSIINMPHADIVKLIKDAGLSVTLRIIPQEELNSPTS
Inadl_1, Q8NI35, sequence (Q8NI35 113-229): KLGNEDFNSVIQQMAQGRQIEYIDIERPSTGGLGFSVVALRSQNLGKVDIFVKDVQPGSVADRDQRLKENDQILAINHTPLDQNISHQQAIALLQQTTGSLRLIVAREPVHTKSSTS
LAP2, Q96RT1, sequence (Q96RT1 other isoform, or with tags, fused parts or gaps): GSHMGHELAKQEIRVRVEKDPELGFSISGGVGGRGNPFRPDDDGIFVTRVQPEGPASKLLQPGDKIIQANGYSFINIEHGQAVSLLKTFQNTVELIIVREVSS
Inadl_4, Q8NI35, sequence (Q8NI35 547-651): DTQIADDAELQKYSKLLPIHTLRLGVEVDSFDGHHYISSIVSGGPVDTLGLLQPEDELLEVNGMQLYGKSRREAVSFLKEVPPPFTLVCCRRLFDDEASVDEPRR
Inadl_6, Q8NI35, sequence (Q8NI35 1058-1167): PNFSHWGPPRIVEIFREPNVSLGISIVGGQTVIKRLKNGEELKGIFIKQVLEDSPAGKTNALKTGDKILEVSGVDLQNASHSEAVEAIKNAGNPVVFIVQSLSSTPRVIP
SCRIB_3, Q14160, sequence (Q14160 999-1103): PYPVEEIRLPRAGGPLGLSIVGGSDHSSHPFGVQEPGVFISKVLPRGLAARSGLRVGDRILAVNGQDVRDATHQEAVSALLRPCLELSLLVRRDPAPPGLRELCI
GRIP2_4, Q9C0E4, sequence (Q9C0E4 446-548): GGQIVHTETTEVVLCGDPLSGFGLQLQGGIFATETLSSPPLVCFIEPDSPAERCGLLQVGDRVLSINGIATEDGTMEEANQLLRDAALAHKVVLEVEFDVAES
MAST1, Q9Y2H9, sequence (Q9Y2H9 962-1065): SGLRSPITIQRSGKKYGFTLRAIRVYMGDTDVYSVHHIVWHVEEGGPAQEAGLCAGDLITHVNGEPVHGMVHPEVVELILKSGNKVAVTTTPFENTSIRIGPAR
DLG4_3, P78352, sequence (P78352 306-403): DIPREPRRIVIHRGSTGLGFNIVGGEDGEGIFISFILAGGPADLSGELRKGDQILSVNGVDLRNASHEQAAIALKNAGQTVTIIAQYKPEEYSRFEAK
Inadl_5, Q8NI35, sequence (Q8NI35 673-780): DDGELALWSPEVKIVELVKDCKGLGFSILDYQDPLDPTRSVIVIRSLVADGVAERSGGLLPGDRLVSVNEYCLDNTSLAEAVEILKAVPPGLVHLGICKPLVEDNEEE
PICK1, Q9NRD5, sequence (Q9NRD5 17-115): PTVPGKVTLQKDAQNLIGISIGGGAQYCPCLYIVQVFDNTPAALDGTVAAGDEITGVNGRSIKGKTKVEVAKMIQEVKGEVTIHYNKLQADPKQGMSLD
IL16_3, Q14005, sequence (Q14005 1107-1207): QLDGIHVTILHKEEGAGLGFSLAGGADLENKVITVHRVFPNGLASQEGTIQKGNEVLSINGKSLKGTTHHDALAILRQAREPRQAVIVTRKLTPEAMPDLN
FRMPD2_3, Q68DX3, sequence (Q68DX3 1073-1166): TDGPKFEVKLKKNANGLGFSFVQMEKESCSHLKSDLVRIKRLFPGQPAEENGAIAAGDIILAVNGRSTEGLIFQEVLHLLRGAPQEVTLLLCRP
HTRA2, O43464, sequence (O43464 355-458): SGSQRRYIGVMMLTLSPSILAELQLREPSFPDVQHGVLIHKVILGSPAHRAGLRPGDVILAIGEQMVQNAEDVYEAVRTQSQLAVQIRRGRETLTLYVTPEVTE
MAGI2_2, Q86UL8, sequence (Q86UL8 410-522): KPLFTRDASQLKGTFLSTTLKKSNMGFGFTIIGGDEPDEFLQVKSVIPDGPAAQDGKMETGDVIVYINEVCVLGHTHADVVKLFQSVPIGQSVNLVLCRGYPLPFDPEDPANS
NOS1, P29475, sequence (P29475 9-101): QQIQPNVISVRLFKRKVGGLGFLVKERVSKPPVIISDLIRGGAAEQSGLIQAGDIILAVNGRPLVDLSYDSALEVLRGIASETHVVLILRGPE

GQSVDLVFPV [AKIP1, Q9NQ31] was tested, and the pKd (DFNB31_2, Q9P202; [1]) was “below the threshold”, the pKd (DFNB31_3, Q9P202; [1]) was “below the threshold” and the pKd (DLG3_2, Q92796; [1]) was “below the threshold”. The pKd (DLG3_3, Q92796; [1]) was “below the threshold”, the pKd (DLG4_3, P78352; [1]) was “below the threshold” and the pKd (FRMPD2_3, Q68DX3; [1]) was “below the threshold”. The pKd (GRIP2_4, Q9C0E4; [1]) was “below the threshold”, the pKd (HTRA2, O43464; [1]) was 3.54 and the pKd (HTRA4, P83105; [1]) was “below the threshold”. The pKd (IL16_3, Q14005; [1]) was “below the threshold”, the pKd (Inadl_1, Q8NI35; [1]) was 3.5 and the pKd (Inadl_4, Q8NI35; [1]) was “below the threshold”. For the same binder, the pKd (Inadl_5, Q8NI35; [1]) was “below the threshold”, the pKd (Inadl_6, Q8NI35; [1]) was “below the threshold” and the pKd (LAP2, Q96RT1; [1]) was “below the threshold”. For the same binder, the pKd (LIN7C, Q9NUP9; [1]) was “below the threshold”, the pKd (MAGI2_2, Q86UL8; [1]) was “below the threshold” and the pKd (MAGI2_5, Q86UL8; [1]) was “below the threshold”. The pKd (MAST1, Q9Y2H9; [1]) was 4.1, the pKd (MPP7, Q5T2T1; [1]) was “below the threshold” and the pKd (NOS1, P29475; [1]) was 3.93. For the same binder, the pKd (PDZD2_2, O15018; [1]) was “below the threshold”, the pKd (PICK1, Q9NRD5; [1]) was “below the threshold” and the pKd (PTPN13_1, Q12923; [1]) was “below the threshold”. For the same binder, the pKd (RADIL, Q96JH8; [1]) was 3.97, the pKd (SCRIB_3, Q14160; [1]) was “below the threshold” and the pKd (TX1BP3, O14907; [1]) was “below the threshold”.

DQPLEKSTKL [AKAP10, O43572] was tested, and the pKd (DFNB31_2, Q9P202; [1]) was “below the threshold”, the pKd (DFNB31_3, Q9P202; [1]) was 3.68 and the pKd (DLG3_2, Q92796; [1]) was 4.14. The pKd (DLG3_3, Q92796; [1]) was “below the threshold”, the pKd (DLG4_3, P78352; [1]) was “below the threshold” and the pKd (FRMPD2_3, Q68DX3; [1]) was “below the threshold”. The pKd (GRIP2_4, Q9C0E4; [1]) was “below the threshold”, the pKd (HTRA2, O43464; [1]) was “below the threshold” and the pKd (HTRA4, P83105; [1]) was “below the threshold”. For the same binder, the pKd (IL16_3, Q14005; [1]) was “below the threshold”, the pKd (Inadl_1, Q8NI35; [1]) was “below the threshold” and the pKd (Inadl_4, Q8NI35; [1]) was “below the threshold”. For the same binder, the pKd (Inadl_5, Q8NI35; [1]) was “below the threshold”, the pKd (Inadl_6, Q8NI35; [1]) was “below the threshold” and the pKd (LAP2, Q96RT1; [1]) was “below the threshold”. The pKd (LIN7C, Q9NUP9; [1]) was “below the threshold”, the pKd (MAGI2_2, Q86UL8; [1]) was “below the threshold” and the pKd (MAGI2_5, Q86UL8; [1]) was 4.02. For the same binder, the pKd (MAST1, Q9Y2H9; [1]) was 4.55, the pKd (MPP7, Q5T2T1; [1]) was “below the threshold” and the pKd (NOS1, P29475; [1]) was “below the threshold”. The pKd (PDZD2_2, O15018; [1]) was 4.23, the pKd (PICK1, Q9NRD5; [1]) was “below the threshold” and the pKd (PTPN13_1, Q12923; [1]) was “below the threshold”. The pKd (RADIL, Q96JH8; [1]) was “below the threshold”, the pKd (SCRIB_3, Q14160; [1]) was 4.14 and the pKd (TX1BP3, O14907; [1]) was “below the threshold”.

LEPAVRSSEL [SH2D3C, Q8N5H7] was tested, and the pKd (DFNB31_2, Q9P202; [1]) was “below the threshold”, the pKd (DFNB31_3, Q9P202; [1]) was “below the threshold” and the pKd (DLG3_2, Q92796; [1]) was “below the threshold”. For the same binder, the pKd (DLG3_3, Q92796; [1]) was “below the threshold”, the pKd (DLG4_3, P78352; [1]) was “below the threshold” and the pKd (FRMPD2_3, Q68DX3; [1]) was “below the threshold”. The pKd (GRIP2_4, Q9C0E4; [1]) was “below the threshold”, the pKd (HTRA2, O43464; [1]) was “below the threshold” and the pKd (HTRA4, P83105; [1]) was 3.85. The pKd (IL16_3, Q14005; [1]) was “below the threshold”, the pKd (Inadl_1, Q8NI35; [1]) was “below the threshold” and the pKd (Inadl_4, Q8NI35; [1]) was “below the threshold”. For the same binder, the pKd (Inadl_5, Q8NI35; [1]) was “below the threshold”, the pKd (Inadl_6, Q8NI35; [1]) was “below the threshold” and the pKd (LAP2, Q96RT1; [1]) was “below the threshold”. For the same binder, the pKd (LIN7C, Q9NUP9; [1]) was “below the threshold”, the pKd (MAGI2_2, Q86UL8; [1]) was “below the threshold” and the pKd (MAGI2_5, Q86UL8; [1]) was 4.28. The pKd (MAST1, Q9Y2H9; [1]) was 4.49, the pKd (MPP7, Q5T2T1; [1]) was “below the threshold” and the pKd (NOS1, P29475; [1]) was “below the threshold”. For the same binder, the pKd (PDZD2_2, O15018; [1]) was 3.97, the pKd (PICK1, Q9NRD5; [1]) was “below the threshold” and the pKd (PTPN13_1, Q12923; [1]) was “below the threshold”. For the same binder, the pKd (RADIL, Q96JH8; [1]) was “below the threshold”, the pKd (SCRIB_3, Q14160; [1]) was 4.39 and the pKd (TX1BP3, O14907; [1]) was 3.86.

For RRVRKLPSTTL [RPS6KA1_-1P, Q15418], the pKd (DFNB31_2, Q9P202; [2]) was “below the threshold”, the pKd (DFNB31_3, Q9P202; [2]) was 3.78 and the pKd (DLG3_2, Q92796; [2]) was 3.89. The pKd (DLG3_3, Q92796; [2]) was 3.63, the pKd (DLG4_3, P78352; [2]) was 3.49 and the pKd (FRMPD2_3, Q68DX3; [2]) was “below the threshold”. The pKd (GRIP2_4, Q9C0E4; [2]) was “below the threshold”, the pKd (HTRA2, O43464; [2]) was 3.49 and the pKd (HTRA4, P83105; [2]) was 3.48. For the same binder, the pKd (IL16_3, Q14005; [2]) was “below the threshold”, the pKd (Inadl_1, Q8NI35; [2]) was 3.35 and the pKd (Inadl_4, Q8NI35; [2]) was “below the threshold”. The pKd (Inadl_5, Q8NI35; [2]) was “below the threshold”, the pKd (Inadl_6, Q8NI35; [2]) was 3.52 and the pKd (LAP2, Q96RT1; [2]) was “below the threshold”. The pKd (LIN7C, Q9NUP9; [2]) was 3.56, the pKd (MAGI2_2, Q86UL8; [2]) was 3.92 and the pKd (MAGI2_5, Q86UL8; [2]) was 3.56. For the same binder, the pKd (MAST1, Q9Y2H9; [2]) was 4.5, the pKd (MPP7, Q5T2T1; [2]) was 3.35 and the pKd (NOS1, P29475; [2]) was “below the threshold”. For the same binder, the pKd (PDZD2_2, O15018; [2]) was 4.04, the pKd (PICK1, Q9NRD5; [2]) was 3.49 and the pKd (PTPN13_1, Q12923; [2]) was 3.4. For the same binder, the pKd (RADIL, Q96JH8; [2]) was 3.52, the pKd (SCRIB_3, Q14160; [2]) was 4.61 and the pKd (TX1BP3, O14907; [2]) was 3.87.

Reference: publication PMC9482650, “Quantitative fragmentomics allow affinity mapping of interactomes” (Nature Communications, 2022)
